Experiments:
[1] = target: MBP
[2] = target: GST-EGF-R (residues 647-688) (Homo sapiens (Human)) (UniProt P00533)
[3] = target: GST-IκB (Schistosoma japonicum (Blood fluke)) [GST: P08515]
[4] = target: GST-ATF2 (substrate of kinase assays, residues not stated) (Homo sapiens (Human)) (UniProt P15336)

## GST-p38 MAP kinase (from UniProt Q16539) (enzyme)
[1]
  relative phosphorylation (PhosphorImager) (relative phosphorylation): 0.23
[2]
  relative phosphorylation (PhosphorImager) (relative phosphorylation): 0.04
[3]
  relative phosphorylation (PhosphorImager) (relative phosphorylation): 0.001
[4]
  relative phosphorylation (PhosphorImager) (relative phosphorylation): 1

Source: US20030129606A1
